Experimental data from publication PMC5737734 (Journal of molecular biology, 2011).

Key:
[1] = biological target: DnaK, wild type, with a C-terminal hexahistidine tag (E. coli, UniProt P0A6Y8 1-638); experiment: SPR
DnaK V389A = DnaK V389A (E. coli, UniProt P0A6Y8 1-638, V389A); experiment: SPR

B1: DnaJ with the biotin carboxyl carrier protein (BCCP) fused at the C-terminus (natural protein, E. coli, UniProt P08622 1-376, looked up)
chain: MAKQDYYEILGVSKTAEEREIRKAYKRLAMKYHPDRNQGDKEAEAKFKEIKEAYEVLTDSQKRAAYDQYGHAAFEQGGMGGGGFGGGADFSDIFGDVFGDIFGGGRGRQRAARGADLRYNMELTLEEAVRGVTKEIRIPTLEECDVCHGSGAKPGTQPQTCPTCHGSGQVQMRQGFFAVQQTCPHCQGRGTLIKDPCNKCHGHGRVERSKTLSVKIPAGVDTGDRIRLAGEGEAGEHGAPAGDLYVQVQVKQHPIFEREGNNLYCEVPINFAMAALGGEIEVPTLDGRVKLKVPGETQTGKLFRMRGKGVKSVRGGAQGDLLCRVVVETPVGLNERQKQLLQELQESFGGPTGEHNSPRSKSFFDGVKKFFDDLTR
- binding result [1]: binds
- binding result (DnaK V389A): binds
